In PMC3985891 (Biochemistry, 2014):

Molecular target: the molecule itself
Assay: SEC-MALS

B1: MVP-s (codon-optimized synthetic MVP, M. jannaschii voltage-gated protein), N-terminal His tag, from pET15b (natural protein, Methanococcus jannaschii, UniProt Q57603 1-209, looked up)
chain: MNLKDRRLKKIMEVLSLIFTFEIVASFILSTYNPPYQDLLIKLDYISIMFFTFEFIYNFYYVEDKAKFFKDIYNIVDAIVVIAFLLYSLQVFYSKAFLGLRVINLLRILVLLRIIKLRKLEENQALINFLTLLTICFIASCLIWIVESGVNPAINNFFDAFYFTTISITTVGYGDITPKTDAGKLIIIFSVLFFISGLITSLQKALKGD
With B1 the “stoichiometry N” value was 4.
